Laboratory results taken from paper PMC4681580 (Journal of immunology (Baltimore, Md. : 1950), 2015).
Primed or numbered codes have the meaning given here. No end group written: not given here. FITC′ = fluorescein isothiocyanate

T1: wild type rat TAP1/TAP2a complex (rat) (UniProt P36370)
T1 sequence (P36370 whole entry, looked up): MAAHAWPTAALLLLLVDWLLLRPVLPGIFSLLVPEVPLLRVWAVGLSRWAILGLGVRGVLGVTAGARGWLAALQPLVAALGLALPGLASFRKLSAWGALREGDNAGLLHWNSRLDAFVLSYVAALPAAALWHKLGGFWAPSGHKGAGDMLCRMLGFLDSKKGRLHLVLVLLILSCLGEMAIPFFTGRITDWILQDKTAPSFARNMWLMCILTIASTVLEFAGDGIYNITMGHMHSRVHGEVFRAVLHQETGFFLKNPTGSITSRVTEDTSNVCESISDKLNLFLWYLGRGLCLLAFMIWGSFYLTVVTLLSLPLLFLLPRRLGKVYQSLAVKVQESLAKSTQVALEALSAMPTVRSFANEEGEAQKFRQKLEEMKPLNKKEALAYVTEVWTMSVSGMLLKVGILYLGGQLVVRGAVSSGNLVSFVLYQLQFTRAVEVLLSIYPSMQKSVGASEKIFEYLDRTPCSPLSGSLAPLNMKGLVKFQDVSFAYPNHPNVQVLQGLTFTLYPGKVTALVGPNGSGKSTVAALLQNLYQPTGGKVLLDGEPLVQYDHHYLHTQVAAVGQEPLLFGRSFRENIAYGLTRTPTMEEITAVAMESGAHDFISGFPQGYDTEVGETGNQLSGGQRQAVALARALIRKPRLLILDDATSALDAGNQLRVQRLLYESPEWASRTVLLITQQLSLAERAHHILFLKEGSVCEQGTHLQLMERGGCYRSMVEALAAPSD
T1 sequence (P36372 whole entry, looked up): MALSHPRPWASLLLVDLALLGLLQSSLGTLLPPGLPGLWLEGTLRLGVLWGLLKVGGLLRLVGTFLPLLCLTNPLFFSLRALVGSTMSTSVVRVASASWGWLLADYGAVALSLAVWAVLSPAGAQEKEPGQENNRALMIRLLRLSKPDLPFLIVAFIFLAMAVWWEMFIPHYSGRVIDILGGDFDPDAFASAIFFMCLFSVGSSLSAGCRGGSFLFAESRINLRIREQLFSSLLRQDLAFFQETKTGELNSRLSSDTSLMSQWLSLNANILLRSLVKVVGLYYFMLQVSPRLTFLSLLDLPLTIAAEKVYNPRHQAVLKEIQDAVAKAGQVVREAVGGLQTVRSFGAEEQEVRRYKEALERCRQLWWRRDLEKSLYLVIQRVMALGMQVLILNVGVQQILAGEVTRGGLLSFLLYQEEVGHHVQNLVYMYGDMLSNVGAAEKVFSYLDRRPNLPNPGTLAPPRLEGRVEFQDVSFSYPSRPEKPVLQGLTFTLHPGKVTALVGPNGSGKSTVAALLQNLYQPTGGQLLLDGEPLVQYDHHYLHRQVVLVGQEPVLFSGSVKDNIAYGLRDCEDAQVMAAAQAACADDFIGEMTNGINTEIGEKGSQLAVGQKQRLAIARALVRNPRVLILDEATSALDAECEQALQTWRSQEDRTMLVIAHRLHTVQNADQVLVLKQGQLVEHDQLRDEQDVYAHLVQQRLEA

T2: rTAP1/TAP2a(E218M/Q262R/S265P/L266F) (rat) (UniProt P36370)
T2 sequence (P36370 1-725 with E218M Q262R S265P L266F, looked up): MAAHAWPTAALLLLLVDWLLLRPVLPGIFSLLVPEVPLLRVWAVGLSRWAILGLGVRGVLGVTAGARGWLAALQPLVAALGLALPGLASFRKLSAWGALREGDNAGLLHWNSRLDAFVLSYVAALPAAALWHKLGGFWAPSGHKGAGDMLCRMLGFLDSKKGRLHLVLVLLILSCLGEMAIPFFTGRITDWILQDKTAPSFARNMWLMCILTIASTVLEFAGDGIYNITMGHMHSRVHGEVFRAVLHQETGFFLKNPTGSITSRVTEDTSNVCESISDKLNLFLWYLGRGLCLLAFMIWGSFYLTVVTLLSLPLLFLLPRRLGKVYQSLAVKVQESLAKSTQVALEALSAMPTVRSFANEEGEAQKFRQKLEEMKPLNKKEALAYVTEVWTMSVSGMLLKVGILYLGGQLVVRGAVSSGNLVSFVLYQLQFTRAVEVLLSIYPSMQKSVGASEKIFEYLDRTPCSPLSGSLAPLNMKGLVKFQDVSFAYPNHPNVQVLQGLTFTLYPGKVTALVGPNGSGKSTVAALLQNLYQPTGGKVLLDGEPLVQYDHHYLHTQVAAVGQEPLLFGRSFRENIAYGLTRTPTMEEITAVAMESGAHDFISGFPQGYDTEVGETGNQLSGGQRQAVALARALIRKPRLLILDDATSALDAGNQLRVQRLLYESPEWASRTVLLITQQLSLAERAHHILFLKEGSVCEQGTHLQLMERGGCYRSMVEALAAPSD
T2 sequence (P36372 1-703 with E218M Q262R S265P L266F, looked up): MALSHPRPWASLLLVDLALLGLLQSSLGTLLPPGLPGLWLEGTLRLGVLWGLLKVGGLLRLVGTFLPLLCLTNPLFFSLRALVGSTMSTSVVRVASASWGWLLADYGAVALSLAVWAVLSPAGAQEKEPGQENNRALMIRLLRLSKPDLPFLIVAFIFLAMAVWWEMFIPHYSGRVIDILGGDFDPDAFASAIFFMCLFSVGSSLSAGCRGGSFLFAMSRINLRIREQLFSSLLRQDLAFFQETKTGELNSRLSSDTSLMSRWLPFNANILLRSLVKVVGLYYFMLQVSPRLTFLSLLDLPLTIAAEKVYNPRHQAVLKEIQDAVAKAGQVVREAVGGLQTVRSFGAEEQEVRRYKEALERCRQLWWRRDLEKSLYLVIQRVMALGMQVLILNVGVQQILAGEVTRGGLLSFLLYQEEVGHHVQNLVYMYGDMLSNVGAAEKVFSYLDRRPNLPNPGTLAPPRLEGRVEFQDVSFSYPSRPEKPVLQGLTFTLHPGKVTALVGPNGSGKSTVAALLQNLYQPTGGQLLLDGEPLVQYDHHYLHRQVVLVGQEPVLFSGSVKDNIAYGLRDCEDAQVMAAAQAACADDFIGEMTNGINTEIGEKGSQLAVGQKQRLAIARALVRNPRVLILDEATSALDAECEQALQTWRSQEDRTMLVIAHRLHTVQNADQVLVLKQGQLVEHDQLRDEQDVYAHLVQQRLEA

T3: rTAP1/TAP2a(E218M) (rat) (UniProt P36370)
T3 sequence (P36370 1-725 with E218M, looked up): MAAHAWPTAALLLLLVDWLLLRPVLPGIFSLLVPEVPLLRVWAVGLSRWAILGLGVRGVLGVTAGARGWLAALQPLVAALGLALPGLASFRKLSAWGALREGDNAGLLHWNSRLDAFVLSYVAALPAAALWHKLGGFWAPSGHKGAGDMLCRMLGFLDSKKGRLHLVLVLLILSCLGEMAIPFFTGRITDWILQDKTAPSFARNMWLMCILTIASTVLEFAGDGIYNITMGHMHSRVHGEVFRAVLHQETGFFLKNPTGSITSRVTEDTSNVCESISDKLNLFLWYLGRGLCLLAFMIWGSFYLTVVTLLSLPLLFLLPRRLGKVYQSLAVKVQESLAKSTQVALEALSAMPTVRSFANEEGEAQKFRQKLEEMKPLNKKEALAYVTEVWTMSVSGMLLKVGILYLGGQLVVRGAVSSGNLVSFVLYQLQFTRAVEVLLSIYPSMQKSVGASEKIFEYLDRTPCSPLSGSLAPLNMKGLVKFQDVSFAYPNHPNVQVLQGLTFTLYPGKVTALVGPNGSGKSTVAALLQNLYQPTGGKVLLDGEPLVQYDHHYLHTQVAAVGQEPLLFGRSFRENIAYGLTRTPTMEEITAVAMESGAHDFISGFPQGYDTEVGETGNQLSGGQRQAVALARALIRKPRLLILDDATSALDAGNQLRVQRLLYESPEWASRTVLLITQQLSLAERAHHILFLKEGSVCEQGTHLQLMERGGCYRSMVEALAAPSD
T3 sequence (P36372 1-703 with E218M, looked up): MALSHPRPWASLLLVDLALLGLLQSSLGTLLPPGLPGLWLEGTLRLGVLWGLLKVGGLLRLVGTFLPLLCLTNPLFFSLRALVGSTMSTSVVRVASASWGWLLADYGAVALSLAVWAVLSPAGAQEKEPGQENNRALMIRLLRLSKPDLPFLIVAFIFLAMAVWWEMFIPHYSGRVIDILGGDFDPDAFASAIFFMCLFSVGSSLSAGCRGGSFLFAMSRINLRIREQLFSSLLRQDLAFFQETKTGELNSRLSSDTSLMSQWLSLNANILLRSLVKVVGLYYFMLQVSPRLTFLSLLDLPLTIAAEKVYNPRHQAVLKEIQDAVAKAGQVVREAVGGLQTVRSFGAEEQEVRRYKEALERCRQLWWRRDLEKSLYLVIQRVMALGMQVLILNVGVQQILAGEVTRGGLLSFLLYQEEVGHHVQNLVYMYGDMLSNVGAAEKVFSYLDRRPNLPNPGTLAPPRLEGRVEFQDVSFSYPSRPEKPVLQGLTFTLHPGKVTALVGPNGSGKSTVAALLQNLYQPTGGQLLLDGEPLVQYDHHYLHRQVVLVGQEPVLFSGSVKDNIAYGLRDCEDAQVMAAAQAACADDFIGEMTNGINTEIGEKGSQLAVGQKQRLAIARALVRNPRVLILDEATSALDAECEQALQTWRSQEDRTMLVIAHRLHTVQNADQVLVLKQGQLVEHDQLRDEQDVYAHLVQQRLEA


Assays:
Assay in all cases: cross-linking
[1] = target: T1, wild type rat TAP1/TAP2a complex (rat)
[2] = target: T2, rTAP1/TAP2a(E218M/Q262R/S265P/L266F) (rat)
rTAP1/TAP2a(E218M) (rat) = target: T3, rTAP1/TAP2a(E218M) (rat)

Binder	Kd [1] [nM]	Kd [2] [nM]	Kd (rTAP1/TAP2a(E218M) (rat)) [nM]	IC50 [1] [nM]
TVDNK(FITC′)CAYR [TVDNK*CAYR (TC6R), FITC-labeled]	187	–	–	–
TVDNK(FITC′)CAYV [TVDNK*CAYV (TC6V), FITC-labeled]	417	107	339	–
TVDNKTAYR […, unlabeled competitor peptide]	–	–	–	> 2000
